Data on 38 sequences can be found in the supplement of paper PMC7877785.

This data set in a line: self-splicing fitness, log relative to wild type (ln ratio); higher = more splicing; Tetrahymena group I intron in knt gene, E. coli kanamycin selection, DiMSum; sequences stand for … in CUCUCU…GGAGGGAAAAGUUAUCAGGCAUGCACCUGGUAGCUAGUCUUUAAACCAAUAGAUUGCAUCGGUUUAAAAGGCAAGACCGUCAAAUUGCGGGAAAGGGGUCAACAGCCGUUCAGUACCAAGUCUCAGGGGAAACUUUGAGAUGGCCUUGCAAAGGGUAUGGUAAUAAGCUGACGGACAUGGUCCUAACCACGCAGCCAAGUCCUAAGUCAACAGAUCUUCUGUUGAUAUGGAUGCAGUUCACAGACUAAAUGUCGGUCGGGGAAGAUGUAUUCUUCUCAUAAGAUAUAGUCGGACCUCUCCUUAAUGGGAGCUAGCGGAUGAAGUGAUGCAACACUGGAGCCGCUGGGAACUAAUUUGUAUGCGAAAGUAUAUUGAUUAGUUUUGGAGUACUCGUGGUCG
In outline: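 Pooled colonies went to amplicon sequencing on an Illumina HiSeq 2500 after six replicate transformations. The plates were LB agar with 100 μg/mL carbenicillin, 50 μM IPTG and 0.2% rhamnose, with or without 25 μg/mL kanamycin, incubated overnight at 37°C or 30°C. The E. coli BL21(DE3) library had all eight P1ex-region intron nucleotides randomised, the intron placed in the knt kanamycin-resistance gene on pET-22b(+). DiMSum fitness is the error-weighted combination of replicate fold changes, kanamycin against none, normalised to wild type.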

± gives the uncertainty stated by the source.

As to UGUCAGCAAUAUUACGCUGA, the “self-splicing fitness (ln)” value is -0.7 ± 0.23 (30 °C) and -0.59 ± 0.27 (37 °C). In the case of GGAAAGCAAUAUUACGUAGA, the “self-splicing fitness (ln)” value is -0.977 ± 0.1 (30 °C) and -1.4 ± 0.17 (37 °C). Turning to GGUCAGCAAUAUUACGAUUG, the “self-splicing fitness (ln)” value by setting is: (30 °C) -0.673 ± 0.073; (37 °C) 0.0247 ± 0.097. Regarding UGGAAGCAAUAUUACGAUCC, the “self-splicing fitness (ln)” value reads like this: (30 °C) -2.44 ± 0.47; (37 °C) -2.1 ± 0.41. Consider AAGGAGCAAUAUUACGGCGU, for which the “self-splicing fitness (ln)” value reads like this: (30 °C) -1.33 ± 0.13; (37 °C) -0.923 ± 0.12.

For the sequence GUACAGCAAUAUUACGCAUG, the “self-splicing fitness (ln)” value runs as follows: (30 °C) -2.26 ± 0.075; (37 °C) -1.03 ± 0.08.

Consider GCCAAGCAAUAUUACGAACG, for which the “self-splicing fitness (ln)” value was -2.71 ± 0.11 (30 °C) and -1.46 ± 0.13 (37 °C).

For CUCCAGCAAUAUUACGAAAU, the “self-splicing fitness (ln)” value runs as follows: (30 °C) -2.83 ± 0.19; (37 °C) -1.75 ± 0.31. With AUGGAGCAAUAUUACGGGGG, the “self-splicing fitness (ln)” value is, setting by setting: (30 °C) -3.55 ± 0.43; (37 °C) -2.21 ± 0.35. As to AAGAAGCAAUAUUACGACCG, the “self-splicing fitness (ln)” value reads like this: (30 °C) -1.05 ± 0.088; (37 °C) 0.483 ± 0.14. On to UCAGAGCAAUAUUACGCAAC, for which the “self-splicing fitness (ln)” value (30 °C) was -3.8 ± 0.48 and the “self-splicing fitness (ln)” value (37 °C) is -1.91 ± 0.29.

GACGAGCAAUAUUACGGGUC: the “self-splicing fitness (ln)” value (30 °C) is -3.77 ± 0.21 and the “self-splicing fitness (ln)” value (37 °C) was -3.28 ± 0.25. For the sequence GACGAGCAAUAUUACGAAUC, the “self-splicing fitness (ln)” value (37 °C) was -2.14 ± 0.4. Same read-out and setting: then CCAGAGCAAUAUUACGAUCC, with -1.91 ± 0.38. Regarding GCAUAGCAAUAUUACGAACA, the “self-splicing fitness (ln)” value reads like this: (30 °C) -1.61 ± 0.13; (37 °C) -1.34 ± 0.12. The like results for GUUUAGCAAUAUUACGUUUC were, in that order, -2.17 ± 0.21 and -2.07 ± 0.23.

Consider CCUUAGCAAUAUUACGCCUA, for which the “self-splicing fitness (ln)” value runs as follows: (30 °C) -2.69 ± 0.48; (37 °C) -1.4 ± 0.35. In the case of UCAGAGCAAUAUUACGUCCG, the “self-splicing fitness (ln)” value was -2.17 ± 0.2 (30 °C) and -1.14 ± 0.25 (37 °C). Turning to CGUCAGCAAUAUUACGCUGC, the “self-splicing fitness (ln)” value reads like this: (30 °C) -2.95 ± 0.26; (37 °C) -2.22 ± 0.35.

AUCGAGCAAUAUUACGUUGC: the “self-splicing fitness (ln)” value is -2.95 ± 0.29 (30 °C) and -1.7 ± 0.27 (37 °C). As for CGUCAGCAAUAUUACGGAAA, the “self-splicing fitness (ln)” value is -2.57 ± 0.3 (30 °C) and -2.38 ± 0.37 (37 °C). Turning to CGGUAGCAAUAUUACGUGCU, the “self-splicing fitness (ln)” value is -3.24 ± 0.28 (30 °C) and -2.51 ± 0.29 (37 °C). The like results for GAAAAGCAAUAUUACGCGUA were, in that order, -1.27 ± 0.11 and -1.15 ± 0.11. With GCUAAGCAAUAUUACGCACC, the “self-splicing fitness (ln)” value runs as follows: (30 °C) -0.869 ± 0.11; (37 °C) 0.0219 ± 0.14.

As to GGUUAGCAAUAUUACGUCGC, the “self-splicing fitness (ln)” value is -1.25 ± 0.24 (30 °C) and -0.982 ± 0.26 (37 °C).

For AACCAGCAAUAUUACGCCGC, the “self-splicing fitness (ln)” value is, setting by setting: (30 °C) -4.1 ± 0.3; (37 °C) -2.45 ± 0.35. For the sequence GCGUAGCAAUAUUACGGAAU, the “self-splicing fitness (ln)” value by setting is: (30 °C) -2.67 ± 0.33; (37 °C) -0.8 ± 0.2. The like results for CAAGAGCAAUAUUACGGUAA were, in that order, -3.24 ± 0.23 and -2.14 ± 0.21. As to CUACAGCAAUAUUACGCCGC, the “self-splicing fitness (ln)” value was -3.76 ± 0.22 (30 °C) and -3.62 ± 0.39 (37 °C). With UGCCAGCAAUAUUACGAGUG, the “self-splicing fitness (ln)” value (30 °C) is -1.32 ± 0.064 and the “self-splicing fitness (ln)” value (37 °C) was -0.537 ± 0.079. On to UCGUAGCAAUAUUACGGCUA, for which the “self-splicing fitness (ln)” value by setting is: (30 °C) -0.508 ± 0.32; (37 °C) -1.81 ± 0.23.

As for GUUGAGCAAUAUUACGGAAU, for the setting “30 °C”, the “self-splicing fitness (ln)” value was -3.08 ± 0.31. Regarding CAUUAGCAAUAUUACGGAAG, the “self-splicing fitness (ln)” value reads like this: (30 °C) -0.396 ± 0.1; (37 °C) -0.104 ± 0.12. Regarding UCUCAGCAAUAUUACGGCGC, the “self-splicing fitness (ln)” value by setting is: (30 °C) -2.56 ± 0.22; (37 °C) -1.78 ± 0.31. As for AGCGAGCAAUAUUACGGUGG, the “self-splicing fitness (ln)” value (30 °C) is -2.67 ± 0.15 and the “self-splicing fitness (ln)” value (37 °C) was -2.11 ± 0.25. The like results for AAUUAGCAAUAUUACGGAAU were, in that order, -2.33 ± 0.27 and -0.461 ± 0.18. Regarding AACCAGCAAUAUUACGGCGU, the “self-splicing fitness (ln)” value came to 0.196 ± 0.054 (30 °C) and 0.259 ± 0.068 (37 °C).

For AAAUAGCAAUAUUACGGAAU, the “self-splicing fitness (ln)” value is -3.69 ± 0.17 (30 °C) and -2.24 ± 0.16 (37 °C).
